T1: PDZRN3_1, Q9UPQ7
T1 sequence (Q9UPQ7 244-349, limits assumed, looked up): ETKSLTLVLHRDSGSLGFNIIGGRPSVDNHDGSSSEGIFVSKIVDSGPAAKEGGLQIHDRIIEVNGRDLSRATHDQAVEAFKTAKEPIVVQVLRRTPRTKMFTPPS

T2: ARHGEF11, O15085
T2 sequence (O15085 42-136, limits assumed, looked up): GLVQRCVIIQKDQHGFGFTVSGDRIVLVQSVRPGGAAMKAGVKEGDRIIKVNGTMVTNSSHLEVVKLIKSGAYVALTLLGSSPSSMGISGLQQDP

T3: MPP7, Q5T2T1
T3 sequence (Q5T2T1 134-230, limits assumed, looked up): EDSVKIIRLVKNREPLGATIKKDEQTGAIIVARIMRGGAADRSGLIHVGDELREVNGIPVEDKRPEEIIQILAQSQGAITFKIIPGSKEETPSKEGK

T4: GRIP1_5, Q9Y3R0
T4 sequence (Q9Y3R0 568-668, limits assumed, looked up): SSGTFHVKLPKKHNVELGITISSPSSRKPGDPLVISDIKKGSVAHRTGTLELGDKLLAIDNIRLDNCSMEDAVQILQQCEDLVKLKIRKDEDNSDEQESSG

T5: SYNJ2BP, P57105
T5 sequence (P57105 8-110, limits assumed, looked up): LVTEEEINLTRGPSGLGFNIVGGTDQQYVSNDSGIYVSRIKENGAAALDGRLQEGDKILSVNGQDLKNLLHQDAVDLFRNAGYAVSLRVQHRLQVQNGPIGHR

T6: GRIP1_7, Q9Y3R0
T6 sequence (Q9Y3R0 999-1096, limits assumed, looked up): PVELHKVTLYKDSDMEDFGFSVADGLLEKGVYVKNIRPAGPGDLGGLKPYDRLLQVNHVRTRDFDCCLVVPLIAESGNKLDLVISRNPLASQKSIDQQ

T7: PCLO, Q9Y6V0
T7 sequence (Q9Y6V0 4491-4600, limits assumed, looked up): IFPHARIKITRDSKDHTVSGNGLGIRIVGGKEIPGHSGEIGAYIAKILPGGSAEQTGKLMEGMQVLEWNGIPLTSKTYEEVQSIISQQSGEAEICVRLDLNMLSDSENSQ

T8: PTPN13_1, Q12923
T8 sequence (Q12923 1088-1188, limits assumed, looked up): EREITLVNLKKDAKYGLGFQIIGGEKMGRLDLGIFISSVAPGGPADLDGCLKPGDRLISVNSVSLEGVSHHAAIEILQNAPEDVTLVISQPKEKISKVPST

T9: LIN7A, O14910
T9 sequence (O14910 103-200, limits assumed, looked up): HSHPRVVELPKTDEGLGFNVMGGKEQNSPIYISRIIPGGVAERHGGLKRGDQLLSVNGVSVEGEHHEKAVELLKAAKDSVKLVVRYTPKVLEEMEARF

T10: MPP6, Q9NZW5
T10 sequence (Q9NZW5 125-219, limits assumed, looked up): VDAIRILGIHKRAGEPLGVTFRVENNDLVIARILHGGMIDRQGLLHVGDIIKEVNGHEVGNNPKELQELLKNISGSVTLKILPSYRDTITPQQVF


What was measured:
Assay in all cases: holdup assay
Design in all cases: key: below the threshold = too weak to quantify, mostly under pKd 3.1 to 4
Conditions in all cases: plain residues with an end cap or a label only (N-terminal biotin on a linker: ado-ado)
HTRA1, Q92743 = biological target: HTRA1, Q92743
HTRA1, Q92743, sequence (Q92743 360-477): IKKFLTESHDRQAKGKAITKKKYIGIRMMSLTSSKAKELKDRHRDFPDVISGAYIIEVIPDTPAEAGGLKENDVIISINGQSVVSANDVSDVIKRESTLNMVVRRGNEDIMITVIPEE

PDZRN3_1, Q9UPQ7 = biological target: T1, PDZRN3_1, Q9UPQ7
ARHGEF11, O15085 = biological target: T2, ARHGEF11, O15085
DLG4_2, P78352 = biological target: DLG4_2, P78352
DLG4_2, P78352, sequence (P78352 155-259): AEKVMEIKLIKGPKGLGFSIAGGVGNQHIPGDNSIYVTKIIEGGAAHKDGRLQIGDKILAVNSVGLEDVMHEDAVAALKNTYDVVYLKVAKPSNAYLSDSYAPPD

Inadl_4, Q8NI35 = biological target: Inadl_4, Q8NI35
Inadl_4, Q8NI35, sequence (Q8NI35 547-651): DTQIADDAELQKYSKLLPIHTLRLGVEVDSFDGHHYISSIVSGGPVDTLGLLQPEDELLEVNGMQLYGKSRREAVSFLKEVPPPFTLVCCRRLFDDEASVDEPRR

MAGI2_5, Q86UL8 = biological target: MAGI2_5, Q86UL8
MAGI2_5, Q86UL8, sequence (Q86UL8 915-1017): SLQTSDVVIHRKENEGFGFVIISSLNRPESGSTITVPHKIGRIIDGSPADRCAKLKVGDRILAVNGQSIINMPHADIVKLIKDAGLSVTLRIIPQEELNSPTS

GRID2IP_1, A4D2P6 = biological target: GRID2IP_1, A4D2P6
GRID2IP_1, A4D2P6, sequence (A4D2P6 1-87): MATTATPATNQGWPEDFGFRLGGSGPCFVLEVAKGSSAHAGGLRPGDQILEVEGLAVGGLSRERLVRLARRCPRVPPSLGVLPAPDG

AHNAK1, Q09666 = biological target: AHNAK1, Q09666
AHNAK1, Q09666, sequence (Q09666 4-100): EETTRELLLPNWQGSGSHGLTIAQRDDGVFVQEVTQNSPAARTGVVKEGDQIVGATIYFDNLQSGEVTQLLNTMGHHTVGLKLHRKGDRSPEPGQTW

GRIP2_3, Q9C0E4 = biological target: GRIP2_3, Q9C0E4
GRIP2_3, Q9C0E4, sequence (Q9C0E4 238-339): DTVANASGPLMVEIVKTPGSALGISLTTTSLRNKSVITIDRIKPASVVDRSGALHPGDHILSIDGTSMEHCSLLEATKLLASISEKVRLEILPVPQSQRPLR

MAGI1_2, Q96QZ7 = biological target: MAGI1_2, Q96QZ7
MAGI1_2, Q96QZ7, sequence (Q96QZ7 456-580): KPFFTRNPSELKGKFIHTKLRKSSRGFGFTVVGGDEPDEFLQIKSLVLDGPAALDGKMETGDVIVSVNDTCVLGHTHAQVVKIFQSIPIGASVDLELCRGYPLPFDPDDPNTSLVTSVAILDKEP

MPP7, Q5T2T1 = biological target: T3, MPP7, Q5T2T1
NHERF4_2, Q86UT5 = biological target: NHERF4_2, Q86UT5
NHERF4_2, Q86UT5, sequence (Q86UT5 220-308): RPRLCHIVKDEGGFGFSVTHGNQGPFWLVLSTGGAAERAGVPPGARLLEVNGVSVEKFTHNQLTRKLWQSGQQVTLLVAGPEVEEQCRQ

MAGI2_3, Q86UL8 = biological target: MAGI2_3, Q86UL8
MAGI2_3, Q86UL8, sequence (Q86UL8 600-682): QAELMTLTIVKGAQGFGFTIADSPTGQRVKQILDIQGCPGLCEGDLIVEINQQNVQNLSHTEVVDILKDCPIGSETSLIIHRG

FRMPD2_1, Q68DX3 = biological target: FRMPD2_1, Q68DX3
FRMPD2_1, Q68DX3, sequence (Q68DX3 770-861): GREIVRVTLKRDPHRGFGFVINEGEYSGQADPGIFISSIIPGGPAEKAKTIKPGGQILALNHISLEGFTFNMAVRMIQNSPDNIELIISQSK

GRIP1_5, Q9Y3R0 = biological target: T4, GRIP1_5, Q9Y3R0
GRASP, Q7Z6J2 = biological target: GRASP, Q7Z6J2
GRASP, Q7Z6J2, sequence (Q7Z6J2 96-193): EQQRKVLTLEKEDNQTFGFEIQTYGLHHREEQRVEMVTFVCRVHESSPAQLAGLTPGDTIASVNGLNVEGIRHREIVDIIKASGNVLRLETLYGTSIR

SYNJ2BP, P57105 = biological target: T5, SYNJ2BP, P57105
MAGI1_1, Q96QZ7 = biological target: MAGI1_1, Q96QZ7
MAGI1_1, Q96QZ7, sequence (Q96QZ7 1-106): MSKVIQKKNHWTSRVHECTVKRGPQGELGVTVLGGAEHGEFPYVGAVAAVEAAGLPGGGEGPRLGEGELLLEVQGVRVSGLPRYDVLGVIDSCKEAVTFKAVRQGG

SCRIB_2, Q14160 = biological target: SCRIB_2, Q14160
SCRIB_2, Q14160, sequence (Q14160 857-960): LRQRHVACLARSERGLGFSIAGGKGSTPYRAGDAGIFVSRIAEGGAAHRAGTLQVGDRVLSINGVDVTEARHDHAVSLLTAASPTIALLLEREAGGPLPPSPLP

GRIP1_7, Q9Y3R0 = biological target: T6, GRIP1_7, Q9Y3R0
GRIP2_6, Q9C0E4 = biological target: GRIP2_6, Q9C0E4
GRIP2_6, Q9C0E4, sequence (Q9C0E4 648-740): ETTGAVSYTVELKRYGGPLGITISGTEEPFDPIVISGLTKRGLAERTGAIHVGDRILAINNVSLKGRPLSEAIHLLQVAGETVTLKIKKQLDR

PCLO, Q9Y6V0 = biological target: T7, PCLO, Q9Y6V0
PTPN13_1, Q12923 = biological target: T8, PTPN13_1, Q12923
LIN7A, O14910 = biological target: T9, LIN7A, O14910
MPP6, Q9NZW5 = biological target: T10, MPP6, Q9NZW5
GIPC2, Q8TF65 = biological target: GIPC2, Q8TF65
GIPC2, Q8TF65, sequence (Q8TF65 112-203): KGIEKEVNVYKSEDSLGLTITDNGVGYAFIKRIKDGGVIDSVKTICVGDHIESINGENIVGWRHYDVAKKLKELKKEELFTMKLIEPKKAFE

MAST2, Q6P0Q8 = biological target: MAST2, Q6P0Q8
MAST2, Q6P0Q8, sequence (Q6P0Q8 1099-1202): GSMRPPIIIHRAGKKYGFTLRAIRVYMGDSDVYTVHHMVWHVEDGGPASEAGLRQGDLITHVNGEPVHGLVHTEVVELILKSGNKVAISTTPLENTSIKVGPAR

Row | Binder | pKd (HTRA1, Q92743) | pKd (PDZRN3_1, Q9UPQ7) | pKd (ARHGEF11, O15085) | pKd (DLG4_2, P78352) | pKd (Inadl_4, Q8NI35) | pKd (MAGI2_5, Q86UL8) | pKd (GRID2IP_1, A4D2P6) | pKd (AHNAK1, Q09666) | pKd (GRIP2_3, Q9C0E4) | pKd (MAGI1_2, Q96QZ7) | pKd (MPP7, Q5T2T1) | pKd (NHERF4_2, Q86UT5) | pKd (MAGI2_3, Q86UL8) | pKd (FRMPD2_1, Q68DX3) | pKd (GRIP1_5, Q9Y3R0) | pKd (GRASP, Q7Z6J2) | pKd (SYNJ2BP, P57105) | pKd (MAGI1_1, Q96QZ7) | pKd (SCRIB_2, Q14160) | pKd (GRIP1_7, Q9Y3R0) | other results
1 | SSSVNVSSNL [CXCR1, P25024] | below the threshold | below the threshold | 3.75 | below the threshold | below the threshold | below the threshold | below the threshold | below the threshold | below the threshold | below the threshold | below the threshold | below the threshold | 3.5 | below the threshold | below the threshold | 3.63 | below the threshold | below the threshold | below the threshold | below the threshold | pKd (GRIP2_6, Q9C0E4): below the threshold; pKd (PCLO, Q9Y6V0): below the threshold; pKd (PTPN13_1, Q12923): below the threshold; pKd (LIN7A, O14910): below the threshold; pKd (MPP6, Q9NZW5): below the threshold; pKd (GIPC2, Q8TF65): below the threshold; pKd (MAST2, Q6P0Q8): 5.13
2 | LPPPESESKV [KCNJ9, Q92806] | below the threshold | below the threshold | below the threshold | 3.67 | below the threshold | below the threshold | below the threshold | below the threshold | below the threshold | below the threshold | below the threshold | below the threshold | 3.64 | below the threshold | below the threshold | below the threshold | 4.02 | below the threshold | below the threshold | below the threshold | pKd (GRIP2_6, Q9C0E4): below the threshold; pKd (PCLO, Q9Y6V0): below the threshold; pKd (PTPN13_1, Q12923): below the threshold; pKd (LIN7A, O14910): below the threshold; pKd (MPP6, Q9NZW5): below the threshold; pKd (GIPC2, Q8TF65): below the threshold; pKd (MAST2, Q6P0Q8): 4.9
3 | LLQEEWETVM [PTH1R, Q03431] | 4.68 | 3.83 | 3.81 | below the threshold | below the threshold | 4.4 | below the threshold | below the threshold | below the threshold | below the threshold | below the threshold | below the threshold | 3.59 | below the threshold | below the threshold | 3.72 | below the threshold | below the threshold | below the threshold | below the threshold | pKd (GRIP2_6, Q9C0E4): below the threshold; pKd (PCLO, Q9Y6V0): below the threshold; pKd (PTPN13_1, Q12923): below the threshold; pKd (LIN7A, O14910): below the threshold; pKd (MPP6, Q9NZW5): below the threshold; pKd (GIPC2, Q8TF65): below the threshold; pKd (MAST2, Q6P0Q8): 5.68

Continued, in another order:

Row | pKd (HTRA1, Q92743) | pKd (PDZRN3_1, Q9UPQ7) | pKd (ARHGEF11, O15085) | pKd (DLG4_2, P78352) | pKd (Inadl_4, Q8NI35) | pKd (MAGI2_5, Q86UL8) | pKd (GRID2IP_1, A4D2P6) | pKd (AHNAK1, Q09666) | pKd (GRIP2_3, Q9C0E4) | pKd (MAGI1_2, Q96QZ7) | pKd (MPP7, Q5T2T1) | pKd (NHERF4_2, Q86UT5) | pKd (MAGI2_3, Q86UL8) | pKd (FRMPD2_1, Q68DX3) | pKd (GRIP1_5, Q9Y3R0) | pKd (GRASP, Q7Z6J2) | pKd (SYNJ2BP, P57105) | pKd (MAGI1_1, Q96QZ7) | pKd (SCRIB_2, Q14160) | pKd (GRIP1_7, Q9Y3R0) | Binder | other results
4 | 3.61 | below the threshold | 3.56 | below the threshold | below the threshold | below the threshold | below the threshold | below the threshold | below the threshold | 3.62 | below the threshold | below the threshold | below the threshold | below the threshold | below the threshold | 4.38 | below the threshold | below the threshold | below the threshold | below the threshold | KKTPVSRSHL [SLC22A3, O75751] | pKd (GRIP2_6, Q9C0E4): below the threshold; pKd (PCLO, Q9Y6V0): below the threshold; pKd (PTPN13_1, Q12923): below the threshold; pKd (LIN7A, O14910): below the threshold; pKd (MPP6, Q9NZW5): below the threshold; pKd (GIPC2, Q8TF65): below the threshold; pKd (MAST2, Q6P0Q8): 4.69
5 | 3.62 | below the threshold | 3.63 | below the threshold | below the threshold | 4.1 | below the threshold | below the threshold | below the threshold | below the threshold | below the threshold | below the threshold | below the threshold | below the threshold | below the threshold | 4.8 | below the threshold | below the threshold | below the threshold | below the threshold | NNMAFETTHF [SLC5A12, Q1EHB4] | pKd (GRIP2_6, Q9C0E4): below the threshold; pKd (PCLO, Q9Y6V0): below the threshold; pKd (PTPN13_1, Q12923): below the threshold; pKd (LIN7A, O14910): 3.74; pKd (MPP6, Q9NZW5): below the threshold; pKd (GIPC2, Q8TF65): below the threshold; pKd (MAST2, Q6P0Q8): 5.56
